This assay addresses T1, PACAP-R3 (human, UniProt P41587 24-438).
T1 sequence (looked up): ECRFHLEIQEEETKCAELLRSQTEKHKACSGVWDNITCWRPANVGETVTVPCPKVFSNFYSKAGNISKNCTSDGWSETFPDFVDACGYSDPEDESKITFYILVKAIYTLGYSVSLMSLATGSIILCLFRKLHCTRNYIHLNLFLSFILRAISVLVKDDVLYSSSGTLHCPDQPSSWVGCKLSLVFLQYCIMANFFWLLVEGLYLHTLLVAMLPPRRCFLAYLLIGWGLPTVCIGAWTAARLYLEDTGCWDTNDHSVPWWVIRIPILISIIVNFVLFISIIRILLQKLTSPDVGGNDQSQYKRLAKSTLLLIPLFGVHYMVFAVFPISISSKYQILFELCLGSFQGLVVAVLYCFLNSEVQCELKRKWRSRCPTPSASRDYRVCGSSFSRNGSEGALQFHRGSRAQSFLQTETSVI
Put plainly: cell-based or functional assay.

No end group written: not given here. Bounds are passed on as bounds.

Consider HSDAVFTDNYTRLRKQMAAKKYLNSIDNKR [R3P118], for which the “R3 EC50” value was 0.5 nM and the “R3 Selectivity” value was 30.
Regarding HSDAVFTDNYTRLRKQMAAKKYLNSIKNGR [R3P139], the “R3 EC50” value is 0.4 nM and the “R3 Selectivity” value is 50.
For the molecule HSDAVFTDNYTRLRKQMAAKKYLNSIKNER [R3P137], the “R3 EC50” value was 0.3 nM and the “R3 Selectivity” value was 100.
On to HSDAVFTDNYTRLRKQMAAKKYLNSIKNPR [R3P145], for which the “R3 EC50” value was found to be 0.5 nM and the “R3 Selectivity” value amounted to 100.
The matching figures for HSDAVFTDNYTRLRKQMAYKKYLNSIKNKR [R3P115]: 6 nM and 50.
The matching figures for HSDAVFTDNYTRLRKQMAAKKYLNSIRNKR [R3P128]: 0.3 nM and 200.
Consider HSDAVFTDNYTRLRKQMAAKKYLNSIQNKR [R3P127], for which the “R3 EC50” value was 0.5 nM and the “R3 Selectivity” value worked out at 600.
For the molecule HSDAVFTDNYTRLRKQMAEKKYLNSIKNKR [R3P99], the “R3 EC50” value worked out at 1 nM and the “R3 Selectivity” value was 40.
The matching figures for HSDAVFTDNYTRLRKQMAAKKYLNSIKNDR [R3P136]: 0.3 nM and 70.
Consider HSDAVFTDNYTRLRKQMAAKKYLNSIKNHR [R3P140], for which the “R3 EC50” value amounted to 0.3 nM and the “R3 Selectivity” value came to 50.
As to HSDAVFTDNYTRLRKQMAVKKYLNSIKNKR [R3P113], the “R3 EC50” value turned out to be 0.3 nM.
HSDAVFTDNYTRLRKQMAAKKYLNSIWNKR [R3P132]: the “R3 EC50” value turned out to be 0.2 nM and the “R3 Selectivity” value stood at 50.
In the case of HSDAVFTDNYTRLRKQMAAKKYLNSIKNMR [R3P143], the “R3 EC50” value was 0.2 nM and the “R3 Selectivity” value was 30.
With HSDAVFTENYTKLRKQLAAKKYLNDLLNGGT [R3P10], the “R3 EC50” value is 11 nM and the “R3 Selectivity” value came to 0.3.
Turning to HSDAVFTDNYTKLRKQLAAKKYLNDILNGGT [R3P11], the “R3 EC50” value was 3 nM and the “R3 Selectivity” value was found to be 3.
Regarding HSDAVFTDNYTRLRKQMAAKKYLNSIFNKR [R3P120], the “R3 EC50” value was 0.2 nM and the “R3 Selectivity” value is 50.
On to HSDAVFTDNYTRLRKQMAAKKYLNSIKNNR [R3P144], for which the “R3 EC50” value worked out at 3 nM and the “R3 Selectivity” value was 100.
As to HSDAVFTDNYTRLRKQMAIKKYLNSIKNKR [R3P103], the “R3 EC50” value was determined as 0.05 nM and the “R3 Selectivity” value came to 8.
Turning to HSDAVFTDNYTRLRKQMAAKKYLNSIHNKR [R3P122], the “R3 EC50” value worked out at 0.2 nM and the “R3 Selectivity” value turned out to be 50.
The matching figures for HSDAVFTDNYTRLRKQLAAKKYLNDIKK-NH2 [R3P13]: 5 nM and 33.
The matching figures for HSDAVFTDNYTRLRKQMAQKKYLNSIKNKR [R3P109]: 10 nM and 100.
The matching figures for HSDAVFTDNYTRLRKQMAGKKYLNSIKNKR [R3P101]: 1 nM and 400.
As for HSDAVFTDNYTRLRKQMAAKKYLNSIENKR [R3P119], the “R3 EC50” value was found to be 0.5 nM and the “R3 Selectivity” value is 30.
Regarding HSDAVFTDNYTRLRKQMAAKKYLNSIGNKR [R3P121], the “R3 EC50” value is 1 nM and the “R3 Selectivity” value is 50.
The matching figures for HSDAVFTDNYTRLRKQVAAKKYLQSILNK [R3P94]: 0.09 nM and 100.
Regarding HSDAVFTDNYTRLRKQMAAKKYLNSIVNKR [R3P131], the “R3 EC50” value is 0.3 nM and the “R3 Selectivity” value was 70.
With HSDAVFTDNYTRLRKQMANKKYLNSIKNKR [R3P107], the “R3 EC50” value was found to be 200 nM.
On to HSDAVFTDNYTRLRKQMAAKKYLNSIKNAR [R3P134], for which the “R3 EC50” value was determined as 0.4 nM.
With HSDAVFTDNYTRLRKQMAHKKYLNSIKNKR [R3P102], the “R3 EC50” value was 60 nM and the “R3 Selectivity” value came to 5.
Take HSDAVFTDNYTRLRKQMAKKKYLNSIKNKR [R3P104]: the “R3 EC50” value stood at 0.2 nM and the “R3 Selectivity” value is 500.
HSDAVFTDNYTRLRKQMAAKKYLNSINNKR [R3P125]: the “R3 EC50” value stood at 2 nM and the “R3 Selectivity” value was 30.
The matching figures for HSDAVFTDNYTRLRKQMAAKKYLNSITNKR [R3P130]: 1 nM and 40.
Take HSDAVFTDNYTRLRKQMAAKKYLNSIMNKR [R3P124]: the “R3 EC50” value came out at 0.2 nM.
Take HSDAVFTDNYTRLRKQMAFKKYLNSIKNKR [R3P100]: the “R3 EC50” value was 0.3 nM and the “R3 Selectivity” value is 30.
HSDAVFTDNYTRLRKQMAAKKYLNSIKNIR [R3P141]: the “R3 EC50” value is 0.2 nM and the “R3 Selectivity” value turned out to be 100.
The matching figures for HSDAVFTDNYTRLRKQLAAKKYLNDIKKGGT [R3P12]: 0.5 nM and over 200.
For the molecule HSDAVFTDNYTRLRKQMASKKYLNSIKNKR [R3P111], the “R3 EC50” value came out at 3 nM and the “R3 Selectivity” value was determined as 300.
The matching figures for HSDAVFTDNYTRLRKQMAAKKYLNSIKNLR [R3P142]: 0.2 nM and 30.
For HSDAVFTDNYTRLRKQMALKKYLNSIKNKR [R3P105], the “R3 EC50” value was 0.3 nM and the “R3 Selectivity” value came out at 3.
As for HSDAVFTDNYTRLRKQMAWKKYLNSIKNKR [R3P114], the “R3 EC50” value turned out to be 2 nM and the “R3 Selectivity” value stood at 10.
For the molecule HSDAVFTDNYTRLRKQMAAKKYLNSIANKR [R3P116], the “R3 EC50” value was determined as 1 nM and the “R3 Selectivity” value amounted to 20.
The matching figures for HSDAVFTDNYTRLRKQMAPKKYLNSIKNKR [R3P108]: 300 nM and 3.
Turning to HSDAVFTDNYTRLRKQMARKKYLNSIKNKR [R3P110], the “R3 EC50” value came out at 0.5 nM and the “R3 Selectivity” value stood at 200.
Consider HSDAVFTDNYTRLRKQMAAKKYLNSIPNKR [R3P126], for which the “R3 EC50” value was determined as 1 nM and the “R3 Selectivity” value was determined as 200.
The matching figures for HSDAVFTDNYTRLRKQMAAKKYLNSISNKR [R3P129]: 1 nM and 50.

These data come from US6972319B1, “Pituitary adenylate cyclase activating peptide (PACAP)receptor 3 (R3) agonists and their pharmacological methods of use” (priority 1999, dated 2005).
